In patent US20130101557A1:

Biological target: vascular endothelial growth factor (VEGF) (human) (UniProt P15692)
Test: cell-based or functional assay

Chain of UniProt P15692 (P15692 other isoform, or with tags, fused parts or gaps limits assumed): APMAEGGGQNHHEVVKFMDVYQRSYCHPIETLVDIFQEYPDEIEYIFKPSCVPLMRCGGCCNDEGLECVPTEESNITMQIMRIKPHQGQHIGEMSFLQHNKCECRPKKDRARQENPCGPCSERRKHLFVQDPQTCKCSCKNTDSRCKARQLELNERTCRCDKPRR

In the case of KH903 (Fc fusion), the viability of HUVECs 72 h after infection with 30 MOI dE1-k35/KH903 (MTT assay), decrease against non-treated group is reported as 53%.
